Results on 6 sequences are retold here after the supplement of paper PMC5998384.

The subject of series [1] is HeLa Kyoto. The experiment in a line: melting temperature (median over replicates), in situ; higher = more thermally stable.
The subject of series [2] is HeLa Kyoto. In words: solubility change mitosis vs G1/S (difference of NP-40 vs SDS log2 ratios) (log2 ratio difference); higher = more soluble in mitosis.
Series [3] has as its system HeLa Kyoto. In words: solubility in G1/S (NP-40 vs SDS abundance) (log2 ratio); higher = more soluble. Conditions: cell cycle stage: G1/S.
Series [4] deals with HeLa Kyoto. In words: thermal stability score vs G1/S (z-score of summed log2 fold changes over temperatures); higher = more thermally stable than in G1/S.
Setting [5] is: cell cycle stage: early G1 (4.5 h after nocodazole release).
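Wherever melting temperature (median over replicates), in situ is given: HeLa Kyoto cells synchronized by double thymidine or nocodazole block, proteins quantified by TMT10plex mass spectrometry, three independent biological replicates.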
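Wherever solubility change mitosis vs G1/S (difference of NP-40 vs SDS log2 ratios) is given: synchronized HeLa Kyoto cells (double thymidine block for G1/S, nocodazole release for mitosis), protein amounts in NP-40 versus SDS lysates quantified by mass spectrometry, three biological replicates.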
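Wherever solubility in G1/S (NP-40 vs SDS abundance) is given: HeLa Kyoto cells arrested at G1/S by double thymidine block, proteins quantified by TMT10plex mass spectrometry in mild NP-40 versus SDS extracts, three biological replicates.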
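Wherever thermal stability score vs G1/S (z-score of summed log2 fold changes over temperatures) is given: synchronized HeLa Kyoto cells, proteins quantified by TMT10plex mass spectrometry, three biological replicates, mitosis taken 0.5 h after nocodazole release, G1/S directly after double thymidine block.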

Consider “MAAPAVSGLSRQVRCFSTSVVRPFAKLVRPPVQVYGIEGRYATALYSAASKQNKLEQVEKELLRVAQILKEPKVAASVLNPYVKRSIKVKSLNDITAKERFSPLTTNLINLLAENGRLSNTQGVVSAFSTMMSVHRGEVPCTVTSASPLEEATLSELKTVLKSFLSQGQVLKLEAKTDPSILGGMIVRIGEKYVDMSVKTKIQKLGRAMREIV [ATP5O]”, for which the melting temperature in the series on HeLa Kyoto [1] (cell cycle stage: G1/S) amounted to 53.4 °C; with HeLa Kyoto [1] (cell cycle stage: mitosis), 53.2 °C. The “solubility change mitosis (log2)” value in the series on HeLa Kyoto [2] was found to be 0.116. The “solubility in G1/S (log2)” value with HeLa Kyoto [3] turned out to be 0.365. Also, the thermal stability score in the series with HeLa Kyoto [4] (setting [5]) was -2.17; in the series with HeLa Kyoto [4] (cell cycle stage: mitosis) it was -2.27.

Turning to “MAAPGGRGRSLSGLLPAQTSLEYALLDAVTQQEKDSLVYQYLQKVDGWEQDLSVPEFPEGLEWLNTEEPISVYKDLCGKIVVLDFFTYCCINCIHLLPDLHALEHTYSDKDGLLIIGVHSAKFPNEKVLDNIKSAVLRYNITHPMVNDADASLWQELEVSCWPTLVILGPRGNMLFSLIGEGHKDKLFLYTSIALKYYKDRGQIRDNKIGIKLYKDSLPPSPLLFPGKVTVDQVTDRLVIADTGHHRILVVWKNGQIQYSIGGPNPGRKDGIFSESTFNSPQGVAIMNNIIYVADTENHLIRKIDLEAEKVSTVAGIGIQGTDKEGGAKGEQQPISSPWDVVFGTSGSEVQRGDILWIAMAGTHQIWALLLDSGKLPKKNELTKGTCLRFAGSGNEENRNNAYPHKAGFAQPSGLSLASEDPWSCLFVADSESSTVRTVSLKDGAVKHLVGGERDPMNLFAFGDVDGVGINAKLQHPLGVTWDKKRNLLYVADSYNHKIKVVDPKTKNCTTLAGTGDTNNVTSSSFTESTFNEPGGLCIGENGELLYVADTNNHQIKVMDLETKMVSVLPIFRSENAVVDGPFLVEKQKTLPKLPKSAPSIRLSPVTACAGQTLQFKLRLDLPSGSKLTEGVSSCWFLTAEGNEWLLQGQIAAGDIENISSQPTISLQIPDDCLSLEAIVSVSVFLYYCSADSSACMMKAILFSQPLQITDTQQGCIAPVELRYVF [NHLRC2]”, the melting temperature was found to be 52 °C in the series with HeLa Kyoto [1] (cell cycle stage: G1/S) and 52.1 °C in the series on HeLa Kyoto [1] (cell cycle stage: mitosis). Further, in the series with HeLa Kyoto [2], the “solubility change mitosis (log2)” value is -0.199. Moreover, in the series on HeLa Kyoto [3], the “solubility in G1/S (log2)” value turned out to be 0.0639. Moreover, the thermal stability score was 0.332 with HeLa Kyoto [4] (setting [5]) and -0.145 with HeLa Kyoto [4] (cell cycle stage: mitosis).

For “MAAPLELSCWGGGWGLPSVHSESLVVMAYAKFSGAPLKVNVIDNTWRGSRGDVPILTTEDDMVSQPAKILNFLRKQKYNADYELSAKQGADTLAYIALLEEKLLPAVLHTFWVESDNYFTVTKPWFASQIPFPLSLILPGRMSKGALNRILLTRGQPPLYHLREVEAQIYRDAKECLNLLSNRLGTSQFFFGDTPSTLDAYVFGFLAPLYKVRFPKVQLQEHLKQLSNLCRFCDDILSSYFRLSLGGISPAGQETVDANLQKLTQLVNKESNLIEKMDDNLRQSPQLPPRKLPTLKLTPAEEENNSFQRLSP [MTX3]”, the melting temperature in the series on HeLa Kyoto [1] (cell cycle stage: G1/S) is 51.4 °C; in the series with HeLa Kyoto [1] (cell cycle stage: mitosis) it was 53 °C. The “solubility change mitosis (log2)” value with HeLa Kyoto [2] came out at 0.0458. Besides, in the series with HeLa Kyoto [3], the “solubility in G1/S (log2)” value came out at 0.0969. Also, the thermal stability score in the series on HeLa Kyoto [4] (setting [5]) is -1.88; in the series with HeLa Kyoto [4] (cell cycle stage: mitosis) it was -1.18.

Regarding “MAAPMLRWGCRGRRWAFARVDGGSCHRRGAPTGSTSNQIRGESSVAQQPLHTAQKTRKGEHKWAAVVGLEIHAQISSNSKLFSGSQVRFSAPPNSLVSFFDASLPGTLPVLNRRCVEAAVMTGLALNCHINKKSLFDRKHYFYADLPAGYQITQQRLPIAVNGSLIYGVCAGKKQSQVIPKTVRIKQIQLEQDSGKSLHDNLRSQTLIDLNRAGVGLLEVVLEPDMSCGEEAATAVRELQLILQALGTSQANMAEGQLRVDANISVHHPGEPLGVRTEVKNLNSIRFLAKAIDYEIQRQINELENGGEILNETRSFHHKLGCTMSMRDKEGKQDYRFMPEPNLPPLVLYDATSLPAGADPQQVINIDQIRETLPELPSVTREKLVQQYGMLLEHSFTLLNEVGLLEFFQNVIKETRAEPKKVTSWVLNTFLGYLKQQNLAVSESPVTPSALAELLDLLDSRTISSSAAKQVFEELWKREGKTPGQIVSEKQLELMQDQGALEQLCHSVMEAHPQVVMDVKNRNPRAINKLIGLVRKATQSRADPVMIKEILEKKLSL [GATB]”, the melting temperature with HeLa Kyoto [1] (cell cycle stage: G1/S) came to 48.3 °C; in the series with HeLa Kyoto [1] (cell cycle stage: mitosis), 48.7 °C. In addition, the “solubility change mitosis (log2)” value in the series with HeLa Kyoto [2] is -0.154. Moreover, in the series with HeLa Kyoto [3], the “solubility in G1/S (log2)” value worked out at 0.473. The thermal stability score in the series on HeLa Kyoto [4] (setting [5]) is -0.148; in the series with HeLa Kyoto [4] (cell cycle stage: mitosis), 0.829.

For the sequence “MAAPPARADADPSPTSPPTARDTPGRQAEKSETACEDRSNAESLDRLLPPVGTGRSPRKRTTSQCKSEPPLLRTSKRTIYTAGRPPWYNEHGTQSKEAFAIGLGGGSASGKTTVARMIIEALDVPWVVLLSMDSFYKVLTEQQQEQAAHNNFNFDHPDAFDFDLIISTLKKLKQGKSVKVPIYDFTTHSRKKDWKTLYGANVIIFEGIMAFADKTLLELLDMKIFVDTDSDIRLVRRLRRDISERGRDIEGVIKQYNKFVKPSFDQYIQPTMRLADIVVPRGSGNTVAIDLIVQHVHSQLEERELSVRAALASAHQCHPLPRTLSVLKSTPQVRGMHTIIRDKETSRDEFIFYSKRLMRLLIEHALSFLPFQDCVVQTPQGQDYAGKCYAGKQITGVSILRAGETMEPALRAVCKDVRIGTILIQTNQLTGEPELHYLRLPKDISDDHVILMDCTVSTGAAAMMAVRVLLDHDVPEDKIFLLSLLMAEMGVHSVAYAFPRVRIITTAVDKRVNDLFRIIPGIGNFGDRYFGTDAVPDGSDEEEVAYTG [UCKL1]”, the melting temperature with HeLa Kyoto [1] (cell cycle stage: G1/S) and with HeLa Kyoto [1] (cell cycle stage: mitosis) was 51.6 °C throughout. In the series with HeLa Kyoto [2], the “solubility change mitosis (log2)” value stood at 0.0371. Besides, in the series on HeLa Kyoto [3], the “solubility in G1/S (log2)” value is -0.0507. Besides, the thermal stability score is -1.2 with HeLa Kyoto [4] (setting [5]) and -0.843 in the series on HeLa Kyoto [4] (cell cycle stage: mitosis).

As for “MAAPPEPGEPEERKSLKLLGFLDVENTPCARHSILYGSLGSVVAGFGHFLFTSRIRRSCDVGVGGFILVTLGCWFHCRYNYAKQRIQERIAREEIKKKILYEGTHLDPERKHNGSSSN [COX20]”, the melting temperature amounted to 55.3 °C with HeLa Kyoto [1] (cell cycle stage: G1/S) and 58 °C in the series with HeLa Kyoto [1] (cell cycle stage: mitosis). In the series on HeLa Kyoto [2], the “solubility change mitosis (log2)” value was -0.0179. Besides, in the series on HeLa Kyoto [3], the “solubility in G1/S (log2)” value was 0.0379. The results for the thermal stability score in the series with HeLa Kyoto [4] (setting [5]) and with HeLa Kyoto [4] (cell cycle stage: mitosis) were -0.338 and -1.53, respectively.
